Test results: the supplement of paper PMC9170038

Tested on: MS2 coat protein
Assay: apparent KD of MS2 coat protein; designed switch direction (-1 OFF switch, 1 ON switch): -1; higher = weaker reporter binding
Procedure, shortened: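 Transcription of designed RNA switches on Illumina chips was done by stalled E. coli RNA polymerase. SNAP-549-labelled MS2 coat protein was then titrated in doubling steps from 0.7 or 1.5 nM to 3 µM, with steps of 0.8–1.5 h at the lowest and 10–20 min at the highest concentration. The per-design median over clusters of curve-fitted normalised fluorescence is reported as apparent KD.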

[1] = Eterna round: R95, input ligand: microRNA oligo, concentration not stated
[2] = Eterna round: R95, input ligand: FMN 200 uM
[3] = Eterna round: R95, input ligand: none
[4] = input ligand: microRNA oligo, concentration not stated

Sequence	apparent KD of MS2 coat protein [1] [nM]	apparent KD of MS2 coat protein [2] [nM]	apparent KD of MS2 coat protein [3] [nM]	apparent KD of MS2 coat protein (input ligand: FMN 200 uM) [nM]	apparent KD of MS2 coat protein [4] [nM]	apparent KD of MS2 coat protein (input ligand: none) [nM]
CAAAAGCGAGGAUAUACAUGAGGAUCACCCAUGUGGCAGCCAUGUAGGAGUGACGUCGGUAGAAGGCGCACCCU [Soaran] (puzzle: Exclusion 3)	76.2	–	–	–	–	–
CAAAAGGUAGGAUAUACGAAAAAAAAGGGUAGAAAAAAAACACAUGAGGAUCACCCAUGUAGAAGGACCAAAAA [salish99_ex2_r3_055] (puzzle: Exclusion 2)	22	67.6	24.5	–	–	–
CAAAAGGUAGGAUAUACGAAAAAAAAGGGUAGAAAAAAAACACAUGAGGAUCACCCAUGUAGAAGGACCAAAAC [salish99_ex2_r3_042] (puzzle: Exclusion 2)	22.6	95.7	21.6	–	–	–
CAAACUUCGCGAGGAUAUGGGAUCAUAUAGAUGCCAGAAGGCGCGACAUGAGGAUCACCCAUGUGUUUUGCCCUGUGAUUCCAG [Eternabot solution 12] (Eterna round: R96, puzzle: Exclusion NG 1)	–	–	–	22.2	16.6	21.5
CACAAGCUUUUUUGAUGCAUUUUAGUUGGUUUCCUUUUUACAUGAGGAUCACCCAUGUUUAUGAAGCUCGAUCUUUU [JR_SV3TOV2_Sub079] (puzzle: Sensor v3, turn-off variant 2)	49.2	54.3	60.1	–	–	–
CACCCUGAUGACAAAUUACAUGAGGAUCACCCAUGUGCCUCGCAGGAUAUCCCAGCACGUCGCAAGGAGAAGGGCGACGCGCCA [Ralerira] (Eterna round: R96, puzzle: Exclusion NG 3)	–	–	–	31.5	23.9	41.3
CACCGUUACAGAGGAUAUGACACAUGAGGAUCACCCAUGUAAUAAAUGAGAAUUUCGAAUGUAACUCAGAAGGCUGGAAUCGGC [Ostricism 77 - Jieux - Exclusion NG 2] (Eterna round: R96, puzzle: Exclusion NG 2)	–	–	–	–	22.1	–
CACCGUUACAGAGGAUAUGACACAUGAGGAUCACCCAUGUAAUAAAUGAGAAUUUCGAAUGUACCUCAGAAGGCUGGAACCGGC [Ostricism 78 - Jieux - Exclusion NG 2] (Eterna round: R96, puzzle: Exclusion NG 2)	–	–	–	61.2	31.5	38.7
CACCUGAAGACAGGAUAUCAUACAUGAGGAUCACCCAUGUAAUAAAUGAGAAUUUCGAAUGUAAUUGAGAAGGGUCGAUAAGGC [Ostricism 91 - Jieux - Exclusion NG 2] (Eterna round: R96, puzzle: Exclusion NG 2)	–	–	–	78.9	30.6	30.6
CACGUGUCAGGAUAUAGGACAGAUAUAGUCACAAUCUCUGCCUAGAAGGGACAUGAGGAUCACCCAUGUCUAUA [EX4 C.17] (Eterna round: R97, puzzle: Exclusion 4)	–	–	–	27.6	–	20.5
CAGACACAUGAGGAUCACCCAUGUAAGGAUAUGAACUGUGGUAACGGAGCCAGCGGGUUCAGAAGGUGCGUGAC [Eternabot (L1) Solution 19] (Eterna round: R97, puzzle: Exclusion 1)	–	–	–	77.9	–	91.4
CAGCUGAAAGUCAGGAUAUCUAGAGCGAUAGCUCUAGAGAAGGGACAUGAGGAUCACCCAUGUGGUCACAGCUG [BmEx4/5-A4] (Eterna round: R97, puzzle: Brourd's mod of Exclusion 4)	–	–	–	169	–	648
CAGCUGAAUGUCAGGAUAUCUAGAGCGAUAGCUCUAGAGAAGGGACAUGAGGAUCACCCAUGUCACUCCAGCUG [BmEx4/3-B4] (Eterna round: R97, puzzle: Brourd's mod of Exclusion 4)	–	–	–	29.5	–	18.2
CAGCUGUGAGGAUAUACAUGAGGAUCACCCAUGUUAAGGAAGUGGUGUAUAUUGUAGUGUAGAAGGCACUUGUC [JR_Ex3_Sub026] (Eterna round: R97, puzzle: Exclusion 3)	–	–	–	234	–	123
CAGGACAGAGGAUAUACAUAGAUACAGAUUCAUGUAGAACUACAUGAGGAUCACCCAUGUAGAAGGCUGACCUG [Fiskers Ex 2 - 4] (Eterna round: R96, puzzle: Exclusion 2)	–	–	–	311	23.5	31.5
CAGGACAGAGGAUAUACAUAGAUACAGAUUCAUGUAGAACUACAUGAGGAUCACCCAUGUAGAAGGCUGACCUG [Fiskers Ex 2 - 4] (puzzle: Exclusion 2)	27.8	–	–	–	–	–

Sequence	apparent KD of MS2 coat protein [1] [nM]	apparent KD of MS2 coat protein [2] [nM]	apparent KD of MS2 coat protein [3] [nM]	apparent KD of MS2 coat protein (input ligand: FMN 200 uM) [nM]	apparent KD of MS2 coat protein [4] [nM]	apparent KD of MS2 coat protein (input ligand: none) [nM]
CAGGAUAGAGGAUAUACAUAGAUACAGAUUCAUGUGAUCCUACAUGAGGAUCACCCAUGUAGAAGGCUAACCUG [Fiskers Ex 2 - 24] (puzzle: Exclusion 2)	306	–	–	–	–	–
CAGGAUAGAGGAUAUGCAUAGAUACAGAUUCAUGUAAUCCUACAUGAGGAUCACCCAUGUAGAAGGCUAUCCUG [Fiskers Ex 2 - 17] (puzzle: Exclusion 2)	14.7	–	–	–	–	–
CAGGGCAUGCGAGGAUAUAGCAACAUGAGGAUCACCCAUGUAUAAGGGUGUCCUAGGCAUGCGCGCUAGAAGGCGCUGGUUCUC [Onreusve] (Eterna round: R96, puzzle: Exclusion NG 2)	–	–	–	431	18.9	75.5
CAGUACAGAGGAUAUACAUGAGGAUCACCCAUGUGUUUCAGGUACGAAAGUACCGAAUGUAGAAGGCUGUACUG [jl-ex3-4.25 salish99 mod] (Eterna round: R97, puzzle: Exclusion 3)	–	–	–	244	–	25.6
CAGUACAGAGGAUAUACAUGAGGAUCACCCAUGUGUUUCAGGUACGAGAGUACCGAGUGUAGAAGGCUGUACUG [jl-ex3-4.28 salish99 mod] (Eterna round: R97, puzzle: Exclusion 3)	–	–	–	244	–	38.1
CAGUACUGAGGAUAUACAUGAGGAUCACCCAUGUGAGAGAUACUAGUGAGGUCGAUUAGUAGAAGGCAGUACUG [Mat X3R4 m3] (Eterna round: R97, puzzle: Exclusion 3)	–	–	–	856	–	35.7
CAGUACUGAGGAUAUACAUGAGGAUCACCCAUGUGUGUGAGAUUUGUGUGGUUGUUUUGUAGAAGGCGGUGCUG [JR_Ex3_Sub031] (Eterna round: R97, puzzle: Exclusion 3)	–	–	–	19.1	–	91.2
CAGUACUGAGGAUAUACAUGAGGAUCACCCAUGUGUUUUCUACUAGGAAACUAGGUAUGUAGAAGGCAGUACUG [Omei Ex3 Mod of Eli 4.27 v3] (Eterna round: R97, puzzle: Exclusion 3)	–	–	–	194	–	22.9
CAGUACUGAGGAUAUACAUGAGGAUCACCCAUGUUGAGAUGAAAAGAAAGAGUUAAAUGUAGAAGGCGGUGCUG [JR_Ex3_Sub047] (Eterna round: R97, puzzle: Exclusion 3)	–	–	–	523	–	71.1
CAGUACUGAGGAUAUACAUGAGGAUCACCCAUGUUGAGAUGAAAAGAAAUAGUUUCAUGUAGAAGGCGGUGCUG [JR_Ex3_Sub048] (Eterna round: R97, puzzle: Exclusion 3)	–	–	–	365	–	118
CAUACACAUGAGGAUCACCCAUGUGAGGAUAUGCGUACGUUGUCCGUAGGCGACGUGCGCAGAAGGCGCUUGGU [JL-ex1-3.18 Eli mod] (puzzle: Exclusion 1)	49	–	–	–	–	–
CAUACUCAAGUCAGGAUAUACAGUCGGAUACGGGUGUAGAAGGGACAUGAGGAUCACCCAUGUAGAGAGUAAAG [EX-4 Malc #23] (puzzle: Brourd's mod of Exclusion 4)	31.1	87	53.8	–	–	–
CAUAUGUUAGGAUAUGCACAGAUCUCCGAAAGGAGAUCUGUGCAGAAGGAACAUGAGGAUCACCCAUGUUGAUG [Mod of Brourd 17 - Jieux - Exclusion 4] (Eterna round: R97, puzzle: Exclusion 4)	–	–	–	176	–	34.2
CAUGAGGGAGGAUAUACAUGAGGAUCACCCAUGUAACUGGGAGUAGUUCUUCGUAGUCGUAGAAGGCCUGAGGG [Eternabot (L1) Solution 14] (Eterna round: R97, puzzle: Exclusion 3)	–	–	–	242	–	723
CAUGAUCUUCGGAUCAUGUACAUGAGGAUCACCCAUGUGACGAGUUACAUGAAAAACAAGCUUUUUGCUCGUCUUAU [Sensor v3 - Turn-off variant 1 - 9] (puzzle: Sensor v3, turn-off variant 1)	121	42.1	49.8	–	–	–
